Assay results: the DeepSol protein solubility set

Assay: soluble on expression in E. coli; label from the status in PepcDB or PDB records

Sequence	soluble on expression in E. coli
MGSDKIHHHHHHMHHNTWKGIILQKQGLLKPQSVQQICQNLNGLQAQFQPYVHIGFRNRMTNEAFQNQDWQASLTRQWSLRRTVHAYLKSEIPLYIHEGRMASVDYLETVSWDGALPQVKKKFYQVILEALETGPMTREELKILCRAENIGVEEEKQVFNAWGGLLRYMVERGEIYQEYGVKRFHRLRDFQPLPKKEAELEIARRYFTGFGPVSLADARYYFKENKSTVLKWMEQLDLKTVEVAGEERFYLGELEEAELPDCLFVAGFDQLLLGYEKKANPFFNPKYIRNIYTLTGIVKPVVFYKGRFVATWKRDKGTILLDIFEDITQQEEKELEHYRQMFEKIL	not soluble
MSTLQRRRVNRADSGDTSSIHSSANNTKGDKIANIAVDGDDDNGTNKKIAYDPEESKLRDNINIPTLTLMEEVLLMGLRDREGYLSFWNDSISYALRGCIIIELALRGKIRILDDSARKRFDLSERLIEVIDSSKTGEVLLDETLQLMKNDEPLSISNWIDLLSGETWNLLKINYQLKQVRERLAKGLVDKGVLRTEMKNFFLFDMATHPIADASCKEAIKRRVLSVLVSRNMELSYNEYFPETTSFKIIRTLALICGSYGANVLENVLTTLEYEKRDKAISRAEEIMAQFSQYPFDLEKETELGVSVNLNKEVKEEIENNPGHDLQLEVIAGVFEVFSRMDMLL	soluble
MGSDKIHHHHHHMRNTAVAEQPASVPAMSRLTRQRLHDTVVEYLRDYIVKGVLAPGVKLNERELCETLGISRTPLREAIKVLAAEGLIEISANRGAAVTKLAESEIDEMFELMSGLEAFAGELACERITPHEIAEIKALHYAMVACREREDLSGYYGYNQQIHDRINGAARNCALRQTYLSINRRLQAMRFKSNFHKSKRDHAVHDHEEMIKALESRDGKRLSAILRQHLLDKRDVVLVTLATARETPATGGR	not soluble
GMLESVRKEWLEIMDRELLEKARSLINANYISTTLSTVDRNYEVNIAVISVLEMIGDDTIICARFGADKTYANLKETGKGVFMVLLTDNDKSKDGIRVYVELSADLQEGEYFDRIKKRLDNTTYKNFPLKNCLVFKIVKILPVSLLRK	soluble
MHIIDSHCHLNFEGLKERLPEVLSNMEANGVGQALAISVSRESFSEVFAVAEAHEHIYCTIGVHPDSREAEEFSIAEMVEAAAHPKVVGIGETGLDYYWCKGDLSWQHKRFADHIEAANQTGLPVIVHTRDAAADTLAILKECKTNSGVIHCFSEDTAFARAAMDLGLYISFSGIVTFKNAPLVQEAAKYVPDDRILVETDAPFLAPVPKRGRQNEPAFVRHTAEHIAKLRNQTLEQVAAYTTENFYRLFKKVPDMRAVLEHHHHHH	not soluble
GATNEVNVDAIKQLYMDCKNEADKFDVLTELYGLMTIGSSIIFVATKKTANVLYGKLKSEGHEVSILHGDLQTQERDRLIDDFREGRSKVLITTNVLARGIDIPTVSMVVNYDLPTLANGQADPATYIHRIGRTGRFGRKGVAISFVHDKNSFNILSAIQKYFGDIEMTRVPTDDWDEVEKIVKKVLKD	soluble
QAVVTQESALTTSPGETVTLTCRSSTGAVTTSNYANWVQEKPDHLFTGLIGGTNKRAPGVPARFSGSLIGDKAALTITGAQTEDEAIYFCALWDSNHLVFGGGTKLTVLGQPKSSPSVTLFPPSSEELETNKATLVCTITDFYPGVVTVDWKVDGTPVTQGMETTQPSKQSNNKYMASSYLTLTARAWERHSSYSCQVTHEGHTVEKSLSPADC	soluble
MSSKFRTEDAWIIGQRMAARLDHEAYPLHKAAFFNDTHSIVQLLRAGRSLSEKDTHGNTALHIATMLGHREAIAILLANNAPVRIKNIDGWNPLMESVSYGDRQIITEMLRKLKTQTNEKMSRGKPHLMKMFQDLGDFYMEFKWDFQSWIPLLSRILPSDVCLIYKKGNLLRMDTTLADFSERNWERGDITFLFNVDAPPGEQLVVMDNKTKVFQRGRREESEAEIDEEVDVLMSTDIVNAHMSTKTVGFKQAYSGWVFKHAREEQMGDFPVNFYSVEGLKLTTRKRREHLTSDDVKKNKSILHSLTSGHTVNDDEFSVEPPTPKIATPTGRLPTTWEEYSGAAPGAPPQMGRPQIVKTNEKQFKALVGMSEEFPLSVDVLVDLLEVVAPFKHLDKLRRFCSARLPPGFPVCVEIPLLATIAAKVTFQKFQFTNDIQDKMFTIPTSYREDPTRFPDL	not soluble
ASGSMQGDPDVLRLLNEQLTSELTAINQYFLHSKMQDNWGFTELAAHTRAESFDEMRHAEEITDRILLLDGLPNYQRIGSLRIGQTLREQFEADLAIEYDVLNRLKPGIVMCREKQDTTSAVLLEKIVADEEEHIDYLETQLELMDKLGEELYSAQCVSRPPTSAWSHPQFEK	soluble
MFQAINASGSGLTTARKWMQVTSNNIVNANTPAAPGADLYERRSVVLESNNSFASMLDGAPTNGVKIKSIEADKTENLVYDPTHPHANEEGYVRYPNIDVTAEMTNVMVAQKMYEANTSVLNANKKMLDKDLEIGRG	not soluble
MGSDKIHHHHHHMTSPHSFSVTPIRTMADGTIKQIHPFTGTEVWTVPGRGNRPLSHPASTIVELSAHDHTSYCAFCSDNMLSTPPEKSRIIIDSSGDFDILPGALPGELSETTPEFRRVPNLFEIVSFDYWHQNFGFDMDSETAMRMAQYLAIPEGREHVLAIVRTRLSAAGEDPAHMTDGELLEKAPSYFAGGHDVIIGRRHFVDDATTSDQLASSGTLTVKEHEAFIRLTVDGIRDLYHRNRYAPYVVAFQNWLKPAGASFDHLHKQLVAIDERGRLIADELHHLRGNPNMYNELAVDYAGYHNLIIAENDHAVAFAGFGHRYPTIEIYSKSAIPEPWLQSDEEIQAMSNLIHACHAATGADVPCNEEWVHKPIDVDMPMPWHVMIKWRVSTLAGFEGGTKVYLNTLSPHKVRDRVVKEMYRLRDEELIASDLRIAMECSVERNSLKYNPLL	not soluble
MGSDKIHHHHHHMKKHAYLIIAHDNWKILEKLLILLDDKRNDIYLHIDRKSNLINFSNNVHNANLFVFHEIDVRWGDISLIQVEFFLFKTAYCKGNYSYYHLISGSDLPLKTQDEIHAFFDAHYPTEFIGFSLEMTCDDRVNRAYIFPKYQRIKNRYGNKLLGSLRSFCAFLQKILNYNHYKLKDKLMIGPEWVSITEQSVSLILSKEKVIMKQYRFASCGDEVYKQTIIGNSFLFNYVYDKNDDYKGCMRYIDWTRGNPYIFRSADFEQLMSSDRMFARKFDEKVDFDIVERIFEVLNGQTSDSKMKYYF	not soluble
MEFNLHAVSSEEKERDFDVVIVGAGAAGFSAAVYAARSGFSVAILDKAVAGGLTAEAPLVENYLGFKSIVGSELAKLFADHAANYAKIREGVEVRSIKKTQGGFDIETNDDTYHAKYVIITTGTTHKHLGVKGESEYFGKGTSYCSTCDGYLFKGKRVVTIGGGNSGAIAAISMSEYVKNVTIIEYMPKYMCENAYVQEIKKRNIPYIMNAQVTEIVGDGKKVTGVKYKDRTTGEEKLIETDGVFIYVGLIPQTSFLKDSGVKLDERGYIVVDSRQRTSVPGVYAAGDVTSGNFAQIASAVGDGCKAALSLYSDSISKK	soluble
SPMAVEEVIEMQGLSLDPTSHRVMAGEEPLEMGPTEFKLLHFFMTHPERVYSREQLLNHVWGTNVYVEDRTVDVHIRRLRKALEPGGHDRMVQTVRGTGYRFSTRF	soluble
MGSDKIHHHHHHMKYSPASETIFVADNQERTMRVEVMEHYGLTQSIEQAGYYETAHHKQLMKDIKGAIREGRLIAVCGVVGSGKTVTLRRLQQQLLDENKIIVARSLSVDKQSVRLATLINALFYDLAQDKQVQIHKQGERRERELQELVKKGKRPVALFVDEAHDLNGNTLTGLKRLMEVVEDGGGRLSVVLAGHPKLRNDLRRPTMEEIGYRTDIFTLDGITGSQREYIQWLLKTSTGKGKPEDILTTEAVDLLAMKLRTPLQVQLHLTLAMEAGYQTGEKPITATLVESVLSRQLDDLEPTLTRHGYRLKDMVEQFDAKPAEIRALFNNQLDPARTAELRDRMLAVGLPI	not soluble
MGSDKIHHHHHHMAKCNAVAGFNALNGVQLNLFTTDELKAIHYATMEVLMDPGIQVSDPEARQIFKENGCEVNEQTNVVKIPEYLVRRALQLAPSRFVLWGRDKKYNTVQEAGGKVHWTCFGTGVKMCKYQEGKYVTVDSVEQDIADIAKLCDWAENIDYFSLPVSARDIAGQGAQDVHETFTPLTNTAKHFHHIDPVGENVEYYRDIVNAYYGGDEEEARKKPIFSMLLCPTSPLELSVNACQVIIKGARFGMPVNVLSMAMSGGSSPVYLAGTLVTHNAEVLAGITLAQLTVPGAKVWYGSSTTTFDLKKGTAPVGSPELGLISASVAKLAQFYGLPAFVAGT	not soluble
